Results published in patent publication US20230192896A1 (published 2023).
Residue numbers refer to the chain shown, from its start.

T1: FX zymogen (UniProt P00742 41-179; P00742 183-488)
T1 chain 1: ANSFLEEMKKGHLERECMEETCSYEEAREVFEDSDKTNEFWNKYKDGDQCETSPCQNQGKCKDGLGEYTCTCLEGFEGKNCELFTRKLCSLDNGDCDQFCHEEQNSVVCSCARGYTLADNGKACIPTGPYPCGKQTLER
T1 chain 2: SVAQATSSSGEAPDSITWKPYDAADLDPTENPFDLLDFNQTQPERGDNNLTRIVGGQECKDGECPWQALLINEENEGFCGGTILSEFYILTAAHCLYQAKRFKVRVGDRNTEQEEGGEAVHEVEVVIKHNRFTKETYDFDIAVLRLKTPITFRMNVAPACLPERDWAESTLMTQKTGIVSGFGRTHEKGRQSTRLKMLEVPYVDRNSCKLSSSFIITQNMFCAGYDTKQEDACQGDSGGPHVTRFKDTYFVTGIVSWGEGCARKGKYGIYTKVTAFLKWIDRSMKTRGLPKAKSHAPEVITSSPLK

B1: BIIB-12-898 (antibody, V domains shown)
VH: QVQLVQSGAEVKKPGASVKVSCKASGYTFTSYYMHWVRQAPGQGLEWMGIINPSGGSTTYAQKFQGRVTMTRDTSTSTVYMELSSLRSEDTAVYYCARGDRMLRAFDPWGQGTLVTVSS
VL: DIQLTQSPSTLSASVGDRVTITCRASQAISSWLAWYQQKPGKAPKLLIYDASSLESGVPSRFSGSGSGTEFTLTISSLQPDDFATYYCQQVNRFPFTFGGGTKVEIK
B2: BIIB-12-920 (antibody, V domains shown)
VH: QVQLVQSGAEVKKPGASVKVSCKASGYTFTSYGISWVRQAPGQGLEWMGWISPYNGNTNYAQKLQGRVTMTTDTSTSTAYMELRSLRSDDTAVYYCARGSGHTTMFWGQGTLVTVSS
VL: EIVMTQSPATLSVSPGERATLSCRASQSVSSNLAWYQQKPGQAPRLLIYSASTRATGIPARFSGSGSGTEFTLTISSLQSEDFAVYYCQQANAYPPTFGGGTKVEI
B3: BIIB-12-934 (antibody, V domains shown)
VH: QVQLVESGGGVVQPGRSLRLSCAASGFTFSSYGMHWVRQAPGKGLEWVAVISYDGSNKYYADSVKGRFTISRDNSKNTLYLQMNSLRAEDTAVYYCARESGGHSYGMDVWGQGTTVTVSS
VL: B2 VL with M4L, S50G, A91F, A93D, Y94H, P96I
B4: BIIB-12-1289 (antibody, V domains shown)
VH: QVQLVQSGAEVKKPGASVKVSCKASGYTFTSYYMHWVRQAPGQGLEWMGIINPGGGSTSYAQKFQGRVTMTRDTSTSTVYMELSSLRSEDTAVYYCARGPPRTYATGSHNWFDPWGQGTLVTVSS
VL: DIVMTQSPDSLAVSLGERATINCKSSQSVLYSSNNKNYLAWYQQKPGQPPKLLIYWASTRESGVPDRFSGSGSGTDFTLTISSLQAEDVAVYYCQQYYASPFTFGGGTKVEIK
B5: BIIB-12-1288 (antibody, V domains shown)
VH: QVQLVQSGAEVKKPGASVKVSCKASGYTFTSYYMHWVRQAPGQGLEWMGIINPSGGSTSYAQKFQGRVTMTRDTSTSTVYMELSSLRSEDTAVYYCARGGANDYGSSSRWWYFDLWGRGTLVTVSS
VL: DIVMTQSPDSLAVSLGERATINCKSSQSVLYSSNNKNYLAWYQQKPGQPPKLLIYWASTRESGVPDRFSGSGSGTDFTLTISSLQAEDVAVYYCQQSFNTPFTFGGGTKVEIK
B6: BIIB-12-1305 (antibody, V domains shown)
VH: QVQLVESGGGVVQPGRSLRLSCAASGFTFSSYGMHWVRQAPGKGLEWVAVISYDGSNKYYADSVKGRFTISRDNSKNTLYLQMNSLRAEDTAVYYCAKLGGRWSSDFQHWGQGTLVTVSS
VL: EIVLTQSPATLSLSPGERATLSCRASQSVSSYLAWYQQKPGQAPRLLIYDASNRATGIPARFSGSGSGTDFTLTISSLEPEDFAVYYCQQSANWPPTFGGGTKVEIK
B7: BIIB-12-1291 (antibody, V domains shown)
VH: QVQLVQSGAEVKKPGASVKVSCKASGYTFTSYYMHWVRQAPGQGLEWMGIINPSGGSTSYAQKFQGRVTMTRDTSTSTVYMELSSLRSEDTAVYYCARSRRMWVGYFDLWGRGTLVTVSS
VL: B6 VL with S91R, A92L, W94L, P96L
B8: BIIB-12-900 (antibody, V domains shown)
VH: QVQLVQSGAEVKKPGASVKVSCKASGYTFTSYYMHWVRQAPGQGLEWMGIINPGGGSTSYAQKFQGRVTMTRDTSTSTVYMELSSLRSEDTAVYYCARSGGMYDRELGMDVWGQGTTVTVSS
VL: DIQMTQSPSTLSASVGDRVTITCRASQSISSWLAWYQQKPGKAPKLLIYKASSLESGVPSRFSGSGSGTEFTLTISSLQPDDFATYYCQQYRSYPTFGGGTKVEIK
B9: BIIB-12-1290 (antibody, V domains shown)
VH: QVQLVQSGAEVKKPGASVKVSCKASGYTFTSYYMHWVRQAPGQGLEWMGIINPGGGSTSYAQKFQGRVTMTRDTSTSTVYMELSSLRSEDTAVYYCAREGGRYVRGMDVWGQGTTVTVSS
VL: DIQMTQSPSSVSASVGDRVTITCRASQGISSWLAWYQQKPGKAPKLLIYAASSLQSGVPSRFSGSGSGTDFTLTISSLQPEDFATYYCQQGFSFPFTFGGGTKVEIK
B10: BIIB-12-895 (antibody, V domains shown)
VH: B9 VH with G54S, E99G, R102Y, Y103K, V104S, M107I, V109Y, T115L
VL: DIQMTQSPSSVSASVGDRVTITCRASQGISSWLAWYQQKPGKAPKLLIYAASSLQSGVPSRFSGSGSGTDFTLTISSLQPEDFATYYCQQASSFPFTFGGGTKVEI
B11: BIIB-12-896 (antibody, V domains shown)
VH: B9 VH with G54S, E99G, G100L, R102Q, Y103Q, V104R, M107F, V109I, T115L
VL: B9 VL with G91A, F92N
B12: BIIB-12-893 (antibody, V domains shown)
VH: QVQLVQSGAEVKKPGASVKVSCKASGYTFTSYYMVWVRQAPGQGLEWMGIINPSGGSTSYAQKFQGRVTMTRDTSTSTVYMELSSLRSEDTAVYYCARDPGRRQYSFYGMDVWGQGTTVTVSS
VL: B9 VL with M4L, G91A, F92A, S93A
B13: BIIB-12-1309 (antibody, V domains shown)
VH: QVQLVESGGGVVQPGRSLRLSCAASGFTFSSYGMHWVRQAPGKGLEWVAVISYDGSNKYYADSVKGRFTISRDNSKNTLYLQMNSLRAEDTAVYYCARGRYTSRYFQHWGQGTLVTVSS
VL: B9 VL with G91A, F92N, F94L, F96I
B14: BIIB-12-1312 (antibody, V domains shown)
VH: QVQLVESGGGVVQPGRSLRLSCAASGFTFSSYGMHWVRQAPGKGLEWVAVISYDGSNKYYADSVKGRFTISRDNSKNTLYLQMNSLRAEDTAVYYCAKGMGHWIDYWGQGTLVTVSS
VL: B9 VL with G91A, F92S, F96P
B15: BIIB-12-1323 (antibody, V domains shown)
VH: B1 VH with M34I, T59S, D100R, M102F, L103P, A105G, F106L, P108Y
VL: B9 VL with G91A, F92N, S93I
B16: BIIB-12-922 (antibody, V domains shown)
VH: QVQLVQSGAEVKKPGASVKVSCKASGYTFTSYYMHWVRQAPGQGLEWMGIINPSGGSTSYAQKFQGRVTMTRDTSTSTVYMELSSLRSEDTAVYYCARRGRIAGMWGQGTTVTVSS
VL: not shown
B17: BIIB-12-1299 (antibody, V domains shown)
VH: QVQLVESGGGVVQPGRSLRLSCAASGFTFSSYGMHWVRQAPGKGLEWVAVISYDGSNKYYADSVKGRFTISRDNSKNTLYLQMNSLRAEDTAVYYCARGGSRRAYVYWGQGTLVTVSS
VL: EIVMTQSPATLSVSPGERATLSCRASQSVSSNLAWYQQKPGQAPRLLIYGASTRATGIPARFSGSGSGTEFTLTISSLQSEDFAVYYCQQLNNFPITFGGGTKVEIK
B18: BIIB-12-927 (antibody, V domains shown)
VH: QVQLVQSGAEVKKPGASVKVSCKASGYTFTSYYMSWVRQAPGQGLEWMGIINPSGGSTSYAQKFQGRVTMTRDTSTSTVYMELSSLRSEDTAVYYCARDSGRKRYYYMDVWGKGTTVTVSS
VL: B17 VL with L91F, N93L, F94W, I96F
B19: BIIB-12-1304 (antibody, V domains shown)
VH: QVQLVESGGGVVQPGRSLRLSCAASGFTFSSYGMHWVRQAPGKGLEWVAVISYDGSNKYYADSVKGRFTISRDNSKNTLYLQMNSLRAEDTAVYYCAKGPGSRRFDIWGQGTMVTVSS
VL: B17 VL with L91A, N93V, F94L, I96L
B20: BIIB-12-928 (antibody, V domains shown)
VH: QVQLVEFGVGVVQPGRSLRLSCAASGFTFSSYGMHWVRQAPGKGLEWVAVISYDGSNKYYADSVKGRFTISRDNSKNTLYLQMNSLRAEDTAVYYCAKGGTYLDTWGQGTLVTVSS
VL: EIVLTQSPGTLSLSPGERATLSCRASQSVRSSYLAWYQQKPGQAPRLLIYGASSRATGIPDRFSGSGSGTDFTLTISRLEPEDFAVYYCQQYVRFPLTFGGGTKVEIK
B21: BIIB-12-905 (antibody, V domains shown)
VH: B20 VH with F7S, V9G
VL: B20 VL with V93G, L97P
B22: BIIB-12-930 (antibody, V domains shown)
VH: B7 VH with S99V, R101Q, M102K, W103A, V104T, G105L, Y106L, D108Q, L109H, R112Q
VL: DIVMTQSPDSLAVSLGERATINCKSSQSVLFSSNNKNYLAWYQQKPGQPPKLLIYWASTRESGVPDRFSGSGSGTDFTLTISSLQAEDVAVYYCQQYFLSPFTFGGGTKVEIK
B23: BIIB-12-1330 (antibody, V domains shown)
VH: B19 VH with P100G, G101S, S102A, R104W, F105I, D106N, M113T
VL: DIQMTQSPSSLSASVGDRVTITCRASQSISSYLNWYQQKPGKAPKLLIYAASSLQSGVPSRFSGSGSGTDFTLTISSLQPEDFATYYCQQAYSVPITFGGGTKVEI
B24: BIIB-12-918 (antibody, V domains shown)
VH: B19 VH with G99S, P100L, S102G, R104S
VL: B9 VL with V11L, G28S, S31R, W32Y, A34N, G91I, F94L, F96I

Molecular target: T1, FX zymogen
Test: BLI

Kd | Binder
18.5 nM | B1
27.7 nM | B2
60.2 nM | B3
48 nM | B4
85.6 nM | B5
38.8 nM | B6
42.6 nM | B7
25.8 nM | B8
16.1 nM | B9
26.3 nM | B10
63.4 nM | B11
52.2 nM | B12
49.9 nM | B13
14.7 nM | B14
38.6 nM | B15
38.6 nM | B16
50.8 nM | B17
26.6 nM | B18
50.5 nM | B19
23.1 nM | B20
48.4 nM | B21
56 nM | B22
56.8 nM | B23
27.7 nM | B24
